{
  "source": "paper PMC8564726",
  "about": "“Heterodimerization of H3K9 histone methyltransferases G9a and GLP activates methyl reading and writing capabilities” (The Journal of Biological Chemistry, 2021)",
  "molecules": {"B1": {"name": "GLP-GLP: homodimer of GLP truncated to the C-terminal ANK and SET domains (ANK-SET) (protein)", "chain": "MAAADAEQAVLAKQETKQDCCMKTELLREDTPMAADEGSTEKQEGETPMAADGETNGSCEKSGDPSHLNAPKHTQENTRASPQEGTNRVSRVAENGVSERDTEVGKQNHVTADDFMQTSVIGSNGYFLNKPALQGQPLRTPNILTSSLPGHAAKTLPGGASKCRTLSALPQTPTTAPTVPGEGSADTEDRKPTASGTDVRVHRARKTMPKSILGLHAASKDHREVQDHKEPKEDINRNISECGRQQLLPTFPALHQSLPQNQCYMATTKSQTACLPFVLAAAVSRKKKRRMGTYSLVPKKKTKVLKQRTVIEMFKSITHSTVGAKGEKALDDSALHVNGESLEMDSEDEDSDELEDDEDHGAEQAAAFPTEDSRTSKESMSETDRAAKMDGDSEEEQESPDTGEDEDGGDESDLSSESSIKKKFLKRRGKTDSPWIKPARKRRRRSRKKPSSMLGSEACKSSPGSMEQAALGDSAGYMEVSLDSLDLRVRGILSSQTENEGLASGPDVLGTDGLQEVPLCSCRMETPKSREISTLANNQCMATESVDHELGRCTNSVVKYELMRPSNKAPLLVLCEDHRGRMVKHQCCPGCGYFCTAGNFMECQPESSISHRFHKDCASRVNNASYCPHCGEEASKAKEVTIAKADTTSTVTLAPGQEKSLAAEGRADTTTGSIAGAPEDERSQSTAPQAPECFDPAGPAGLVRPTSGLSQGPGKETLESALIALDSEKPKKLRFHPKQLYFSARQGELQKVLLMLVDGIDPNFKMEHQSKRSPLHAAAEAGHVDICHMLVQAGANIDTCSEDQRTPLMEAAENNHLDAVKYLIKAGAQVDPKDAEGSTCLHLAAKKGHYDVVQYLLSNGQMDVNCQDDGGWTPMIWATEYKHVELVKLLLSKGSDINIRDNEENICLHWAAFSGCVDIAEILLAAKCDLHAVNIHGDSPLHIAARENRYDCVVLFLSRDSDVTLKNKEGETPLQCASLSSQVWSALQMSKALRDSAPDKPVAVEKTVSRDIARGYERIPIPCVNAVDSELCPTNYKYVSQNCVTSPMNIDRNITHLQYCVCVDDCSSSTCMCGQLSMRCWYDKDGRLLPEFNMAEPPLIFECNHACSCWRNCRNRVVQNGLRARLQLYRTQDMGWGVRSLQDIPLGTFVCEYVGELISDSEADVREEDSYLFDLDNKDGEVYCIDARFYGNVSRFINHHCEPNLVPVRVFMSHQDLRFPRIAFFSTRLIQAGEQLGFDYGERFWDVKGKLFSCRCGSSKCRHSSAALAQRQASAAQEPQENGLPDTSSAAAADPL"}},
  "key": {"H3_1–20 peptide": {"test_system": "H3_1–20 peptide", "test": "H3 tail peptide methylation kinetics (multiple turnover)", "type": "biochemical", "conditions": "Michaelis–Menten, 9 μM 3H-SAM + 1000 μM cold SAM, 0.4 to 0.8 μM enzyme, pH 8, duplicates, 95% CI: G9a-G9a 24.6-34.6, GLP-GLP 9.5-15.5, G9a-GLP 26.0-34.5, G9aS-GLP 20.5-28.3, listed as GLP", "method": "(§1) Substrate peptides or nucleosomes were mixed in a solution containing 9 μM tritiated S-Adenosyl Methionine (SAM, PerkinElmer) cofactor, and reactions were initiated upon addition of 0.4 to 0.8 μM enzyme. Peptide reactions were supplemented with 1000 μM cold SAM to fully saturate the SAM-binding pocket (Fig. S3). Due to signal limitations, nucleosome reactions were not supplemented with SAM (see Supporting methods). Reactions were run in 100 mM Tris pH 8, 100 mM KCl, 1 mM MgCl2, 20 μM ZnSO4, 10 mM BME and quenched with laemmli buffer. Peptide reactions were performed as described ([11]). Nucleosome methylation reactions were read out via autoradiography as described ([11]), except that proteins were separated on an 18% SDS PAGE gel.\nAll methylation reactions (except Fig. S4A) were performed under Multiple Turnover conditions ([25]). To determine initial rates, methylation time courses were traced at various concentrations of H3K9-containing substrate while keeping the concentration of SAM and enzyme constant. Plots of initial rate versus concentration H3K9 substrate measured in duplicate or triplicate were fit to V = Vmax∗[S]/(KM + [S]) using Prism software to extract KM and kcat (or kobs) values as well as the 95% confidence interval bounds of the fit. See Supporting methods for special considerations for nucleosome kinetics."}, "[1]": {"test_system": "mononucleosome (core nucleosome)", "test": "Mononucleosome methylation kinetics (multiple turnover)", "type": "biochemical", "conditions": "initial rates, 10 μM histone tails (Fig. 3F)", "text": "(§2) Histone proteins and nucleosomes were purified as described ([11], [26]) with modifications (see Supporting methods). For fluorescence polarization, nucleosomes were reconstituted with a 5ʹ fluoresceinated DNA template. H3K9 dimethylation was installed via Methyl-Lysine Analog (MLA) technology as described ([10], [26]). K9 MLA-monomethylated H3 was purchased from Active Motif. H3K27A was introduced by site-directed mutagenesis and purified as described ([26]).\nSubstrate peptides or nucleosomes were mixed in a solution containing 9 μM tritiated S-Adenosyl Methionine (SAM, PerkinElmer) cofactor, and reactions were initiated upon addition of 0.4 to 0.8 μM enzyme. Peptide reactions were supplemented with 1000 μM cold SAM to fully saturate the SAM-binding pocket (Fig. S3). […] Nucleosome methylation reactions were read out via autoradiography as described ([11]), except that proteins were separated on an 18% SDS PAGE gel. […]\n(§3) Detailed E. coli protein expression, purification, and tag cleavage methods Cells co- expressing His and MBP constructs were lysed on ice via sonication in lysis buffer (100mM Tris pH 8, 300mM NaCl, 10% glycerol (v/v), 0.1% Tween-20, with freshly added 1mM β-mercaptoethanol (BME), 1mM PMSF, 5mM Benzamidine, 200µM Leupeptin, Aproptinin, Pepstatin, Phenantroline). […] All protein constructs were quantified using SDS page with BSA standards and Sypro Red stain. […]"}, "[2]": {"test_system": "unmethylated (H3K9me0) mononucleosomes", "test": "Fluorescence polarization binding to unmethylated mononucleosome", "text": "as §2\n(§4) Polarization assays with fluoresceinated H3_1–20 K9me1 or K9me2 peptides, 147 bp 601 DNA template, and core nucleosomes were performed and Kd values estimated as described ([11]) with the following modifications: The reaction buffer was 100 mM Tris pH 8, 100 mM KCl, 1 mM MgCl2, 20 μM ZnSO4, 10 mM BME, 0.1% NP-40. The concentration of peptides and nucleosomes was 150 nM and 200 nM for DNA. Polarization measurements were conducted on a Biotek Cytation 5 (peptide and nucleosome) or Molecular Devices Spectramax (DNA) plate reader with low-volume plates (Corning) in either 10 μl (peptide, nucleosome) or 40 μl (DNA) total volume."}, "H3_1–20 K9me1 peptide": {"test_system": "H3_1–20 K9me1 peptide", "test": "Fluorescence polarization binding to H3K9me1 peptide", "method": "as §4"}, "[3]": {"test_system": "H3K9me1 monomethylated mononucleosomes", "test": "Fluorescence polarization binding to H3K9me1 mononucleosome", "text": "as §2, §4"}, "H3_1–20 K9me2 peptide": {"test_system": "H3_1–20 K9me2 peptide", "test": "Fluorescence polarization binding to H3K9me2 peptide", "conditions": "GLP ANK-SET homodimer, reduction as worded (reference me1 binding or ANK alone not stated)", "method": "as §4"}, "10-nucleosome arrays": {"test_system": "10-nucleosome arrays", "test": "Nucleosome array methylation, initial rate", "type": "biochemical", "conditions": "2 μM histone tails, nonsaturating (Fig. 3H)", "method": "as §1\nAll methylation reactions (except Fig. S4A) were performed under Multiple Turnover conditions ([25]). […]\nas §3"}},
  "note": "Read-outs that look alike come from different tables or passages of the source.",
  "data": [
    {"molecule": "B1", "values": [
      {"measurement": "kcat, H3_1–20 peptide", "setting": "H3_1–20 peptide", "value": "~0.233", "unit": "s⁻¹"},
      {"measurement": "activity on mononucleosomes near saturation, in words", "setting": "[1]", "value": "slowest of the three enzyme constructs"},
      {"measurement": "binding to nucleosomes, in words", "setting": "[2]", "value": "binds poorly to nucleosomes"},
      {"measurement": "Kd", "setting": "[2]; 147 bp 601 DNA 5ʹ fluorescein-labeled nucleosomes, 150 nM, pH 8, 100 mM KCl, 0.1% NP-40, 95% CI (μM): G9a 6.4-8.6, G9a-GLP 5.6-7.6, GLP-GLP 17.4-41.5, read-out: Kd, unmethylated (me0) mononucleosome", "value": 26.3, "unit": "µM"},
      {"measurement": "affinity for H3K9me1 peptide, in words", "setting": "H3_1–20 K9me1 peptide", "value": "can recognize H3K9me1"},
      {"measurement": "affinity for H3K9me1 peptide, in words", "setting": "H3_1–20 K9me1 peptide; listed as GLP", "value": "binds H3K9me1 peptides tightly"},
      {"measurement": "binding to H3K9me1 nucleosomes, in words", "setting": "[3]", "value": "binds relatively tightly to H3K9me1"},
      {"measurement": "reduced binding to me2 peptides (fold)", "setting": "H3_1–20 K9me2 peptide", "value": 12.5, "unit": "times"},
      {"measurement": "initial rate on nucleosome arrays, in words", "setting": "10-nucleosome arrays", "value": "slowest"}
    ]}
  ]
}
